In patent publication US20030129189A1, “Tumor necrosis factor-gamma” (priority 1994, published 2003):

B1: full length TNF-gamma-beta on the cell surface (HEK293F stable transfectants; transfected cells) (ligand)
chain: MAEDLGLSFGETASVEMLPEHGSCRPKARSSSARWALTCCLVLLPFLAGLTTYLLVSQLRAQGEACVQFQALKGQEFAPSHQQVYAPLRADGDKPRAHLTVVRQTPTQHFKNQFPALHWEHELGLAFTKNRMNYTNKFLLIPESGDYFIYSQVTFRGMTSECSEIRQAGRPNKPDSITVVITKVTDSYPEPTQLLMGTKSVCEVGSNWFQPIYLGAMFSLQEGDKLMVNVSDISLVDYTKEDKTFFGAFLL
notes: also called TNF-gamma-beta expressing cells

Key:
[1] = target: T1, Fc-fusion form of the extracellular domain of DR6 (UniProt O75509 42-349, limits assumed); test: flow cytometry on HEK293F cells expressing full length TNF-gamma-beta
T1 construct: extracellular domain; not shown: Fc part of the fusion
T1 sequence (looked up): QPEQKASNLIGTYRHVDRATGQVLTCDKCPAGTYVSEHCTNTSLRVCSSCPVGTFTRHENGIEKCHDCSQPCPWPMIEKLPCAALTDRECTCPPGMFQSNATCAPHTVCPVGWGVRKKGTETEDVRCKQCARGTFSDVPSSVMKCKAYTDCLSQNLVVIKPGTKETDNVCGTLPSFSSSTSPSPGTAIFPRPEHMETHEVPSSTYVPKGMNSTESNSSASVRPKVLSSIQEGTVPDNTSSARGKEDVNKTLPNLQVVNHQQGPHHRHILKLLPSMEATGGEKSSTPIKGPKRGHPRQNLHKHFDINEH
Description: (§1) TR6 has been previously described as a decoy receptor (Pitti et al., Nature 396:699-703 (1998); Yu et al., J. Biol. Chem. 274:13733-6 (1999)) capable of competing with Fas and HveA for binding of FasL and LIGHT, respectively.
(§2) One million cells, in 0.1 ml of FACS buffer (PBS, 0.1% BSA, 0.1% NaN₃), were incubated with 0.1-1 microgram of protein or antibody at RT for 15 min. The cells were washed with 3 ml of FACS buffer, reacted with biotinylated primary antibody, and stained with PE-conjugated secondary antibody at RT for 15 min. Cells were then washed again, resuspended in 0.5 microgram/ml of propidium iodide, and live cells were gated and analyzed on a FACScan using the CellQuest software (BD Biosciences).

[2] = target: T2, Fc-fusion form of the extracellular domain of OPG (UniProt O00300 22-401, limits assumed); test: as above
T2 construct: extracellular domain; not shown: Fc part of the fusion
T2 sequence (looked up): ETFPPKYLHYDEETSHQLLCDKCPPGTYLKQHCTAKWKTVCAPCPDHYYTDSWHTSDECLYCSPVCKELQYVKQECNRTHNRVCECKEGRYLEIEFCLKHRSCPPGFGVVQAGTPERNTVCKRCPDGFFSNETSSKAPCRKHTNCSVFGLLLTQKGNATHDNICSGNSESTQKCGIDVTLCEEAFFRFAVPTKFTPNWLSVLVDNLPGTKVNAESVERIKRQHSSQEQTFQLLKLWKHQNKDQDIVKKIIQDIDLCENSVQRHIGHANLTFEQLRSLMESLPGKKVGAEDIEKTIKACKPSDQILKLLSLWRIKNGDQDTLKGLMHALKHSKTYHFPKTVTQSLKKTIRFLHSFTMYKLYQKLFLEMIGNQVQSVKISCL
Description: as §1, §2

non-tagged form of TR6 = target: T3, non-tagged form of TR6 (UniProt O95407 30-300); test: competition flow cytometry on HEK293F cells expressing TNF-gamma-beta; competitor of DR3-Fc
T3 construct: also called DcR3
T3 sequence (looked up): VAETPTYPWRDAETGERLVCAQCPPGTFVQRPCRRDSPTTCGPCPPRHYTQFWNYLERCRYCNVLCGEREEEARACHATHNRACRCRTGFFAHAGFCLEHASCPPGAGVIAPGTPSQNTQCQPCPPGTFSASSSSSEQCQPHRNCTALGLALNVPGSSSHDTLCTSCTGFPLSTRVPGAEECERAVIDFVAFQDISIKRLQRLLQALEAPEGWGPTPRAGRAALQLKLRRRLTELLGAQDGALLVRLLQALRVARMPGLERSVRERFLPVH
Description: as §1, §2

[3] = target: B1; test: flow cytometry on HEK293F cells expressing full length TNF-gamma-beta
Description: as §1, §2

[4] = target: T4, FLAG-tagged soluble TNF-gamma-beta (aa 72-251) (human, UniProt O95150 72-251); test: co-immunoprecipitation with protein A-Sepharose, anti-Flag M2 blot
T4 construct: also called FLAG-TL1β; FLAG-TNF-gamma-beta; not shown: The N-terminal FLAG tag (pFLAG-CMV-1 vector) and any vector linker
T4 sequence: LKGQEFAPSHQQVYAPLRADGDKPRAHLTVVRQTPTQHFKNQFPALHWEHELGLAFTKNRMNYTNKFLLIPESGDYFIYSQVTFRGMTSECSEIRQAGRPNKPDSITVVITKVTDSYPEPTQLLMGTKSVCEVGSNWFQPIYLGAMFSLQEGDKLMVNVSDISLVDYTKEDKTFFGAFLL
Description: The beads were then precipitated and washed extensively with PBST buffer (PBS, 0.5% Triton X-100) before boiled in SDS-sample buffer. Proteins were resolved on 4-20% Tris-Glycine gels (NOVEX), transferred to nitrocellulose membranes, and blotted with anti-Flag M2 monoclonal antibody (1 microgram/ml, Sigma) andhorseradish peroxidase (HRP)-conjugated goat anti-mouse IgG antibody (0.5 microgram/ml).

[5] = target: T5, recombinant, untagged TNF-gamma-beta protein (aa 72-251) (human, UniProt O95150 72-251); test: BIAcore 3000, TNFR-Fc immobilised on CM5 chip, TNF-gamma-beta in flow
T5 construct: they are put here; also called TL1β; non-tagged TNF-gamma-beta
T5 sequence: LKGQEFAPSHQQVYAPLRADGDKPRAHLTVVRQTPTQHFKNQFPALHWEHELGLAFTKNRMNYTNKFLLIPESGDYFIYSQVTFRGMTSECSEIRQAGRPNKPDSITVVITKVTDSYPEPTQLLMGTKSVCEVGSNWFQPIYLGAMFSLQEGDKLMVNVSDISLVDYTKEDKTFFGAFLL
Description: TNFR-Fc were covalently immobilized to the BIAcore sensor chip (CM5 chip) via amine groups using N-ethyl-N′-(dimethylaminopropyl) carbodiimide/N-hydroxysuccinimide chemistry. […] The amount of bound protein was determined during washing of the flow cell with HBS buffer (10 mM HEPES, pH 7.4, 150 mM NaCl, 3.4 mM EDTA, 0.005% Surfactant P20). The flow cell surface was regenerated by displacing bound protein by washing with 20 microliters of 10 mM glycine-HCl, pH 2.3. For kinetic analysis, the on and off rates were determined using the kinetic evaluation program in BIAevaluation 3 software using a 1:1 binding model and the global analysis method.

[6] = tested on: MC-38 murine colon cancer; test: In vivo tumorigenicity assay, syngeneic MC-38 colon cancer; set-up: species or system C57BL6/6 mice; conditions: local production by transfected MCA 38 cells, 1×10^6 cells/mouse
Description: [The full-length TNF-gamma and extracellular domain of DR3 was cloned into pcDNA3 expression vector and transfected to MCA 38 cells, respectively. After selection and cloning, three clones from each constructs were picked for tumorigenicity study. MCA 38 cells (1×10^6 cells/mouse) expressing TNF-gamma or DR3 extracellular domain were injected into C57BL6/6 mice. The tumor size was assessed by measuring perpendicular diameters with a caliper and calculated by multiplying the measurements of diameters in two dimensions. Data are represented as the mean +/−SD of 6 mice in each group.] It is clear that most immune cells and cancer cells can express more than one TNF receptor (even more than one death receptor) and ligand superfamily member. […] Moreover, the expression of these ligands and receptors may differ at the level of individual cell types within tissues and the expression level on the same cell type may also differ.
The full length TNF-gamma and extracellular domain of DR3 was cloned into pcDNA3 expression vector (Invitrogen, Carlsbad, Calif.) and transfected to MCA 38 cells, respectively. […] Mice then were randomized and tumors were measured twice weekly. The tumor size was assessed by measuring perpendicular diameters with a caliper and calculated by multiplying the measurements of diameters in two dimensions. […]

B1: no binding [1]; no binding [2]; binds (non-tagged form of TR6).

B2: TACI-Fc (extracellular domain of human TACI, aa 1-159, fused to the Fc domain of human IgG1) (Fc fusion, UniProt O14836 1-159, looked up)
chain: MSGLGRSRRGGRSRVDQEERFPQGLWTGVAMRSCPEEQYWDPLLGTCMSCKTICNHQSQRTCAAFCRSLSCRKEQGKFYDHLLRDCISCASICGQHPKQCAYFCENKLRSPVNLPPELRRQRSGEVENNSDNSGRYQGLEHRGSEASPALPGLKLSADQ
notes: range 1-159; also called TAC1; not shown: Fc domain of human IgG1, fused in-frame to the C-terminus of the receptor part
B2: no binding [3]; no binding [4].

B3: BCMA-Fc (Fc fusion, human, UniProt Q02223 1-54, looked up)
chain: MLQMAGQCSQNEYFDSLLHACIPCQLRCSSNTPPLTCQRYCNASVTNSVKGTNA
notes: Control surface of the BIAcore analysis; not shown: Fc part of the fusion; not described for this receptor
B3: no binding (tested: 3-370 nM) [5].

B4: soluble DR3: extracellular domain of DR3 locally produced by transfected MCA 38 cells (protein, UniProt Q93038 25-199, looked up)
extracellular domain: QGGTRSPRCDCAGDFHKKIGLFCCRGCPAGHYLKAPCTEPCGNSTCLVCPQDTFLAWENHHNSECARCQACDEQASQVALENCSAVADTRCGCKPGWFVECQVSQCVSSSPFYCQPCLDCGALHRHTRLLCSRRDTDCGTCLPGFYEHGDGCVSCPTSTLGSCPERCAAVCGWRQ
modifications: extracellular domain
notes: extracellular domain of DR3 locally produced by transfected MCA 38 cells
B4 was tested, and the tumor growth [6] was “promotes tumor growth”.
